# Patent US20260263521A1, “ANTI-CD200R1 ANTIBODY AND USE THEREOF” (AIMED BIO INC., priority 2023, published 2026)
# Columns and labels:
# [1] = molecular target: human CD200R1 expressed on cells (Jurkat-CD200R1, U937-CD200R1, HH cells) (human) (UniProt Q8TD46); experiment: flow cytometry, HH cells; drawn table
# [2] = molecular target: human CD200R1 expressed on cells (Jurkat-CD200R1, U937-CD200R1, HH cells) (human) (UniProt Q8TD46); experiment: flow cytometry, HH cells; drawn table, row EC50
# [3] = molecular target: human CD200R1 expressed on cells (Jurkat-CD200R1, U937-CD200R1, HH cells) (human) (UniProt Q8TD46); experiment: cell-based or functional assay
# Chain of human CD200R1 expressed on cells (Jurkat-CD200R1, U937-CD200R1, HH cells) (human) (Q8TD46 25-348): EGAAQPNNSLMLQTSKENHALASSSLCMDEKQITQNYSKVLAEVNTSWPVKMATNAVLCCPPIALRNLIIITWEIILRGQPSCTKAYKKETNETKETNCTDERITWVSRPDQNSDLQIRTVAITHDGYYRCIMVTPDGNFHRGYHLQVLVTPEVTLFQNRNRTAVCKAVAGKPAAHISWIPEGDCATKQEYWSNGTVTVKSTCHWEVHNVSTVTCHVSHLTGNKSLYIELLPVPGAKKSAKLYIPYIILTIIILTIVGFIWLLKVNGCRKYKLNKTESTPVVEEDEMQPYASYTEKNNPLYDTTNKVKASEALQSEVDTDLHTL
substance,measurement,setting,value
IgG1 (antibody),Geo mean (%) at 0.05 nM,[1],0.8%
same,Geo mean (%) at 0.19 nM,[1],0.8%
same,Geo mean (%) at 0.78 nM,[1],0.8%
same,Geo mean (%) at 3.125 nM,[1],0.8%
same,Geo mean (%) at 12.5 nM,[1],0.8%
same,Geo mean (%) at 50 nM,[1],1%
same,Geo mean (%) at 200 nM,[1],1.9%
same,Geo mean (%) at 800 nM,[1],3.5%
same,EC50,[2],815 nM
"LY3454738 (US 2020/0087395, I-4P, Eli Lilly) (antibody)","EC50 (nM), degree of signal transduction by the Dok2 protein",[3],> 10000 nM
same,"IC50 (nM) of IL-6 inhibition, LPS-treated U937-CD200R1 cells",[3],1.72 nM
same,"IC50 (nM) of TNF-α inhibition, LPS-treated U937-CD200R1 cells",[3],6.03 nM
same,"IL-6 (pg/ml) at log [Ab] (M) -7, LPS-treated U937-CD200R1 cells",[3],523 pg/ml
same,"IL-6 (pg/ml) at log [Ab] (M) -8, LPS-treated U937-CD200R1 cells",[3],1330 pg/ml
same,"IL-6 (pg/ml) at log [Ab] (M) -9, LPS-treated U937-CD200R1 cells",[3],2670 pg/ml
same,"IL-6 (pg/ml) at log [Ab] (M) -10, LPS-treated U937-CD200R1 cells",[3],3380 pg/ml
same,"IL-6 (pg/ml) at log [Ab] (M) -11, LPS-treated U937-CD200R1 cells",[3],3550 pg/ml
same,"IL-6 (pg/ml) at log [Ab] (M) -12, LPS-treated U937-CD200R1 cells",[3],4530 pg/ml
same,"RLU (a.u.), phosphorylated Dok2 reporter, antibody dose 0.05 nM",[3],9260 a.u.
same,"RLU (a.u.), phosphorylated Dok2 reporter, antibody dose 0.10 nM",[3],8400 a.u.
same,"RLU (a.u.), phosphorylated Dok2 reporter, antibody dose 0.20 nM",[3],8000 a.u.
same,"RLU (a.u.), phosphorylated Dok2 reporter, antibody dose 0.39 nM",[3],8960 a.u.
same,"RLU (a.u.), phosphorylated Dok2 reporter, antibody dose 0.78 nM",[3],8900 a.u.
same,"RLU (a.u.), phosphorylated Dok2 reporter, antibody dose 1.56 nM",[3],9100 a.u.
same,"RLU (a.u.), phosphorylated Dok2 reporter, antibody dose 3.13 nM",[3],9470 a.u.
same,"RLU (a.u.), phosphorylated Dok2 reporter, antibody dose 6.25 nM",[3],8930 a.u.
same,"RLU (a.u.), phosphorylated Dok2 reporter, antibody dose 12.5 nM",[3],13000 a.u.
same,"RLU (a.u.), phosphorylated Dok2 reporter, antibody dose 25 nM",[3],22700 a.u.
same,"RLU (a.u.), phosphorylated Dok2 reporter, antibody dose 50 nM",[3],25600 a.u.
same,"TNF-α (pg/ml) at log [Ab] (M) -7, LPS-treated U937-CD200R1 cells",[3],472 pg/ml
same,"TNF-α (pg/ml) at log [Ab] (M) -8, LPS-treated U937-CD200R1 cells",[3],1040 pg/ml
same,"TNF-α (pg/ml) at log [Ab] (M) -9, LPS-treated U937-CD200R1 cells",[3],1480 pg/ml
same,"TNF-α (pg/ml) at log [Ab] (M) -10, LPS-treated U937-CD200R1 cells",[3],3760 pg/ml
same,"TNF-α (pg/ml) at log [Ab] (M) -11, LPS-treated U937-CD200R1 cells",[3],4950 pg/ml
same,"TNF-α (pg/ml) at log [Ab] (M) -12, LPS-treated U937-CD200R1 cells",[3],5490 pg/ml
"hIgG4 kappa isotype control (Crownvivo, #C0004) (antibody)","IL-6 (pg/ml) at log [Ab] (M) -7, LPS-treated U937-CD200R1 cells",[3],3510 pg/ml
same,"TNF-α (pg/ml) at log [Ab] (M) -7, LPS-treated U937-CD200R1 cells",[3],5090 pg/ml
